The target of this assay is T1, measles virus nucleocapsid (N) protein, Edmonston wild-type (measles virus (Edmonston wild-type), UniProt P04851 1-525).
T1 sequence (looked up): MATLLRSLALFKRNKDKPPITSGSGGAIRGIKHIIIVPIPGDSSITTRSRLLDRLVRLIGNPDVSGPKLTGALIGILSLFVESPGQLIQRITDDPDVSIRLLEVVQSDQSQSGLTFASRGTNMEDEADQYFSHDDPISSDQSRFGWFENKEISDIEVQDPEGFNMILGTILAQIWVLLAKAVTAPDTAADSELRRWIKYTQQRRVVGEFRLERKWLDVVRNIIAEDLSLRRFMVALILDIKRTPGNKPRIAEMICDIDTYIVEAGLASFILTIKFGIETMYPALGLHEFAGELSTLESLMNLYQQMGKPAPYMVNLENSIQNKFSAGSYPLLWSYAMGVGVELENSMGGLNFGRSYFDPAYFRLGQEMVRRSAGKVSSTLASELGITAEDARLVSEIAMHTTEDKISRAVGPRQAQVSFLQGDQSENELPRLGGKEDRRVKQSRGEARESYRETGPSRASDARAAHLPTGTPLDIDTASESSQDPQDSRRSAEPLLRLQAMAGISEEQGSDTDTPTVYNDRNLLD
In words: separate experiment, method not described, data not shown.

B1: measles virus V protein mutant haV-9 (deletion of amino acids 1-20) (other)
chain: MAYPYDVPDYAAEPIGSLAIEEAMAAWSEISDNPGQERATCREEKAGSSGLSKPCLSAIGSTEGGAPRIRGQGPGESDDDAETLGIPPRNLQASSTGLQCYYVYDHSGEAVKGIQDADSIMVQSGLDGDSTLSGGDNESENSDVDIGEPDTEGYAITDRGSAPISMGFRASDVETAEGGEIHELLRLQSRGNNFPKLEKTLNVPPPPDPGRASTSETPIKKGHRREISLIWNGDRVFIDRWCNPMCSKVTLGTIRARCTCGECPRVCEQCRTDTGVDTRIWYHNLPEIPE
notes: Made in the pMV-haV-wt backbone by deletion mutagenesis
Turning to B1, the binding result is reported as “no binding”.

B2: measles virus V protein mutant haV-11 (deletion of amino acids 1-20 and 208-230) (other)
chain: MAYPYDVPDYAAEPIGSLAIEEAMAAWSEISDNPGQERATCREEKAGSSGLSKPCLSAIGSTEGGAPRIRGQGPGESDDDAETLGIPPRNLQASSTGLQCYYVYDHSGEAVKGIQDADSIMVQSGLDGDSTLSGGDNESENSDVDIGEPDTEGYAITDRGSAPISMGFRASDVETAEGGEIHELLRLQSRGNNFPKLEGHRREISLIWNGDRVFIDRWCNPMCSKVTLGTIRARCTCGECPRVCEQCRTDTGVDTRIWYHNLPEIPE
notes: as for B1
B2: the binding result is reported as “no binding”.

Source of the values: patent publication US20030206925A1 (Pfizer, published 2003).
